According to patent US20140072613A1, “Compositions and Methods for Treating Cutaneous Scarring” (priority 2012, published 2014):

Tests used:
Test in all cases: biochemical
Format in all cases: biochemical
266 human kinases [1] = biological target: T1, 266 human kinases (Homo sapiens, UniProt O60285); conditions: ARK5(h); 100 μM
T1 sequence (O60285 1-661): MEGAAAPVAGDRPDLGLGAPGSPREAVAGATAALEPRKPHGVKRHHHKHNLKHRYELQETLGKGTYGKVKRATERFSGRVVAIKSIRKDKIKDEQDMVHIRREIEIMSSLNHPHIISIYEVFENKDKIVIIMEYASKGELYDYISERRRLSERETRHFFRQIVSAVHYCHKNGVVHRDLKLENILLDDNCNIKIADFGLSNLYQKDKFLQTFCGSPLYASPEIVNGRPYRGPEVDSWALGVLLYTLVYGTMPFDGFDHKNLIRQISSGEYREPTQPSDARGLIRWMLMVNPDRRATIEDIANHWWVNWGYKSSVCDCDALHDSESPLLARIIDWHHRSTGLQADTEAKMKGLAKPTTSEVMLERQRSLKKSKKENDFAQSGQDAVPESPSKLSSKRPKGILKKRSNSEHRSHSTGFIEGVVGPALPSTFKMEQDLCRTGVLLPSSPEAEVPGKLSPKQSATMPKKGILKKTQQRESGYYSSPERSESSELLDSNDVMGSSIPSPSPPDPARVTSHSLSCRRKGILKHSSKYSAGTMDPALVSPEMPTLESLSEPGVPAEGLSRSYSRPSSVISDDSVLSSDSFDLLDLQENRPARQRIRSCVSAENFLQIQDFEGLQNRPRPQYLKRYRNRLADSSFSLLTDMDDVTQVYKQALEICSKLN
In short: (§1)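 Inhibition was judged from reduced transfer of labelled phosphate from ATP to a positively charged substrate, which was captured on a negatively charged membrane and quantified by scintillation counting against a 100% activity control.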

266 human kinases [2] = biological target: 266 human kinases (Homo sapiens, UniProt O75116); conditions: ROCK-II(h); 100 μM
In short: as §1

266 human kinases [3] = biological target: 266 human kinases (Homo sapiens, UniProt P08631); conditions: 100 μM
In short: as §1

266 human kinases [4] = biological target: 266 human kinases (Homo sapiens, UniProt P10721, D816V); conditions: cKit(D816V)(h); 100 μM
In short: as §1

266 human kinases [5] = biological target: 266 human kinases (Homo sapiens, UniProt P17612); conditions: PKA(h); 100 μM
In short: as §1

266 human kinases [6] = biological target: 266 human kinases (Homo sapiens, UniProt P17948); conditions: Flt1(h); 100 μM
In short: as §1

266 human kinases [7] = biological target: 266 human kinases (Homo sapiens, UniProt P36888); conditions: Flt3(h); 100 μM
In short: as §1

266 human kinases [8] = biological target: T2, 266 human kinases (Homo sapiens, UniProt P42680); conditions: Tec(h)activated; 100 μM
T2 sequence (P42680 1-631): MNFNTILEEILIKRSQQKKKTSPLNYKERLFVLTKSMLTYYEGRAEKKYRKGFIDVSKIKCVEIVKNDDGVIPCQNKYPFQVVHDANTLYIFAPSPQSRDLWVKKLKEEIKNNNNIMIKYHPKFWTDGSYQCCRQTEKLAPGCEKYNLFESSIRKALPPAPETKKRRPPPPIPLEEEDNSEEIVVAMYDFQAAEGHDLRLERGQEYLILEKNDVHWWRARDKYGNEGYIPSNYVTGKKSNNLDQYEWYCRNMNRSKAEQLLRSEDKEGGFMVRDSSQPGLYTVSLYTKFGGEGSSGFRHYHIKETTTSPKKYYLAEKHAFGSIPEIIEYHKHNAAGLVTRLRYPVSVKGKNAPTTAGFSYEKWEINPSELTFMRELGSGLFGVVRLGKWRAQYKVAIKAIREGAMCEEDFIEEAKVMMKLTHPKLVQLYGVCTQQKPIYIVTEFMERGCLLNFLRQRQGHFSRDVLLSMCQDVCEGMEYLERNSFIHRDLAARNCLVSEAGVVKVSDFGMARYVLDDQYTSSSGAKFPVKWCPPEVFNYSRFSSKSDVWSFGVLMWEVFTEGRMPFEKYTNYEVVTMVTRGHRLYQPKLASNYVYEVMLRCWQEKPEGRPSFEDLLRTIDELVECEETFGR
In short: as §1

266 human kinases [9] = biological target: 266 human kinases (Homo sapiens, UniProt P42685); conditions: PTK5(h); 100 μM
In short: as §1

266 human kinases [10] = biological target: 266 human kinases (Homo sapiens, UniProt P78362); conditions: SRPK2(h); 100 μM
In short: as §1

266 human kinases [11] = biological target: 266 human kinases (Homo sapiens, UniProt Q13131); conditions: AMPKα1(h); 100 μM
In short: as §1

266 human kinases [12] = biological target: 266 human kinases (Homo sapiens, UniProt Q13177); conditions: PAK2(h); 100 μM
In short: as §1

266 human kinases [13] = biological target: 266 human kinases (Homo sapiens, UniProt Q15375); conditions: EphA7(h); 100 μM
In short: as §1

266 human kinases [14] = biological target: 266 human kinases (Homo sapiens, UniProt Q15759); conditions: SAPK2b(h); 100 μM
In short: as §1

266 human kinases [15] = biological target: T3, 266 human kinases (Homo sapiens, UniProt Q6PHR2); conditions: ULK3(h); 100 μM
T3 sequence (Q6PHR2 1-472): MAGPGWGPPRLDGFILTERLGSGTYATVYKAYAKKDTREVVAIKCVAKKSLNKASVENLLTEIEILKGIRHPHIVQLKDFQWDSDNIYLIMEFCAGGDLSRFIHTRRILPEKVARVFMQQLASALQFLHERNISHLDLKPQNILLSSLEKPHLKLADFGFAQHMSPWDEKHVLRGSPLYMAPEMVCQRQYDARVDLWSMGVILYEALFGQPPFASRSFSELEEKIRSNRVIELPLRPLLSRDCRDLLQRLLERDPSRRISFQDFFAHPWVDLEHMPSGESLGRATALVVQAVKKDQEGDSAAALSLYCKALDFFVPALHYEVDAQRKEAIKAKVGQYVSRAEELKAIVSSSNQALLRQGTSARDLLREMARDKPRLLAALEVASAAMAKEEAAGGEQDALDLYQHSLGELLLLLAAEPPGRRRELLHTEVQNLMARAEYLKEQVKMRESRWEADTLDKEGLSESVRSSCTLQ
In short: as §1

Sequence of 266 human kinases (Homo sapiens, UniProt P08631) (P08631 whole entry): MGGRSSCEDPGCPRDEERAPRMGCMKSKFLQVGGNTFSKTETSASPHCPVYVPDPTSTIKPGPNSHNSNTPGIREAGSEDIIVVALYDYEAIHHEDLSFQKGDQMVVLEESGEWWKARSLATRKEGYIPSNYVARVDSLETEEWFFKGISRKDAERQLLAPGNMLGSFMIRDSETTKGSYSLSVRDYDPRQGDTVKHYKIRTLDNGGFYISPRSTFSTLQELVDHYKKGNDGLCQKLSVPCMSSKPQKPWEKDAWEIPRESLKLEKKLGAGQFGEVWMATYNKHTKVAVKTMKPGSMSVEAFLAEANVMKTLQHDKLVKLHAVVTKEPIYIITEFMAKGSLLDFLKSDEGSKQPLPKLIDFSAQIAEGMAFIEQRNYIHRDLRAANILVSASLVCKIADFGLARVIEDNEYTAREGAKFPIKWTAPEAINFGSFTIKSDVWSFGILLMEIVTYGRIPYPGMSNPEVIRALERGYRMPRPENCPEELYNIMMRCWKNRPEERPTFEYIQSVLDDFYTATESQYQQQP
Sequence of 266 human kinases (Homo sapiens, UniProt P17948) (P17948 27-1338): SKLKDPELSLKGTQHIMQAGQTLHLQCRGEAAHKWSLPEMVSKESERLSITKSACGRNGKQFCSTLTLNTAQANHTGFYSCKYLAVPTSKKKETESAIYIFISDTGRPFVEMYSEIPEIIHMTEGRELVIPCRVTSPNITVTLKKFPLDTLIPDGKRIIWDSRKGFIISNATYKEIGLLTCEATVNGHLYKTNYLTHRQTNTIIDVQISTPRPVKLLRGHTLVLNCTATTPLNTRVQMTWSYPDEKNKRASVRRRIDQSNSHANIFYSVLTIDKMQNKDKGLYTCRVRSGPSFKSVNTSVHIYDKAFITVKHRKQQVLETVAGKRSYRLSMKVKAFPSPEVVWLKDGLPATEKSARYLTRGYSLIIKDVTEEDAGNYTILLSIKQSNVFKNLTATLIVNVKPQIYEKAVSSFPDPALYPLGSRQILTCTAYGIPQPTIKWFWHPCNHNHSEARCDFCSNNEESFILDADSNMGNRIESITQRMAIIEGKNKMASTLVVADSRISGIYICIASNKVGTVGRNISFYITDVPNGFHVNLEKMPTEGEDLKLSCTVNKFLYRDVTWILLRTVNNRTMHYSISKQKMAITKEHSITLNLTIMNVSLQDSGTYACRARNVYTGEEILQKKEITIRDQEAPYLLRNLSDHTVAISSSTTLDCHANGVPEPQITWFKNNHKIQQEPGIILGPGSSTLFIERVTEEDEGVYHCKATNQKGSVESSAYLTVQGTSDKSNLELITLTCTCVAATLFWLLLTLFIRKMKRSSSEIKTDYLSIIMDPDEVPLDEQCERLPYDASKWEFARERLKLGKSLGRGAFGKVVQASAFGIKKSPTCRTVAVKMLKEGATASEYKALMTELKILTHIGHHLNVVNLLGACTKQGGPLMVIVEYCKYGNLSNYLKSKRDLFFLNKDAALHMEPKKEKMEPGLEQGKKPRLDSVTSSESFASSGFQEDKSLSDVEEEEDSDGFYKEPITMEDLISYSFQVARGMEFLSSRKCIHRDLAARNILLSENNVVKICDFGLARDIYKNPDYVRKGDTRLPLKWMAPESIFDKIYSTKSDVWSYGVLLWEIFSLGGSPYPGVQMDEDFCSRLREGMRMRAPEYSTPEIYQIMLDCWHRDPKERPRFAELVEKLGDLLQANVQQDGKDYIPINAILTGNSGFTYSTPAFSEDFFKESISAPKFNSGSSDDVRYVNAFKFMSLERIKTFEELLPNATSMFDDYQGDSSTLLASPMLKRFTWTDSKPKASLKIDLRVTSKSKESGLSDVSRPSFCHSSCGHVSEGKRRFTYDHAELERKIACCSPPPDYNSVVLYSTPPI
Sequence of 266 human kinases (Homo sapiens, UniProt P78362) (P78362 whole entry): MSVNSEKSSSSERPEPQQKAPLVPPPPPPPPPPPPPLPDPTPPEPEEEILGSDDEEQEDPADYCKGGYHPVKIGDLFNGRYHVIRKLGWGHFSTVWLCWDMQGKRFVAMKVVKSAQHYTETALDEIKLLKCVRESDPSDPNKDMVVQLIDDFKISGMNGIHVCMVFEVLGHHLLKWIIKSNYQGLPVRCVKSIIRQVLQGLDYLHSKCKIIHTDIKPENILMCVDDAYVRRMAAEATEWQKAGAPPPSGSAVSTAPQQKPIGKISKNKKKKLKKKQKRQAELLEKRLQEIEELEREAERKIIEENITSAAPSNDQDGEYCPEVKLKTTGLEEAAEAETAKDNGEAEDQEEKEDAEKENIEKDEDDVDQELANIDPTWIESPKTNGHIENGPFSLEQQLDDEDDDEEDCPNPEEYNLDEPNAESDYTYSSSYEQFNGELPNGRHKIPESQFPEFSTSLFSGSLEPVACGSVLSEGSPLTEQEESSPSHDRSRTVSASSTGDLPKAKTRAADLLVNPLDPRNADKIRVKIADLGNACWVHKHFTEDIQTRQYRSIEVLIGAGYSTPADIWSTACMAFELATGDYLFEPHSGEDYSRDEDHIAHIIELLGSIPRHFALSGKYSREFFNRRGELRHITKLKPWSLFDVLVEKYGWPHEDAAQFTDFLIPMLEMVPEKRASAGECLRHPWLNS
Sequence of 266 human kinases (Homo sapiens, UniProt Q15375) (Q15375 28-998): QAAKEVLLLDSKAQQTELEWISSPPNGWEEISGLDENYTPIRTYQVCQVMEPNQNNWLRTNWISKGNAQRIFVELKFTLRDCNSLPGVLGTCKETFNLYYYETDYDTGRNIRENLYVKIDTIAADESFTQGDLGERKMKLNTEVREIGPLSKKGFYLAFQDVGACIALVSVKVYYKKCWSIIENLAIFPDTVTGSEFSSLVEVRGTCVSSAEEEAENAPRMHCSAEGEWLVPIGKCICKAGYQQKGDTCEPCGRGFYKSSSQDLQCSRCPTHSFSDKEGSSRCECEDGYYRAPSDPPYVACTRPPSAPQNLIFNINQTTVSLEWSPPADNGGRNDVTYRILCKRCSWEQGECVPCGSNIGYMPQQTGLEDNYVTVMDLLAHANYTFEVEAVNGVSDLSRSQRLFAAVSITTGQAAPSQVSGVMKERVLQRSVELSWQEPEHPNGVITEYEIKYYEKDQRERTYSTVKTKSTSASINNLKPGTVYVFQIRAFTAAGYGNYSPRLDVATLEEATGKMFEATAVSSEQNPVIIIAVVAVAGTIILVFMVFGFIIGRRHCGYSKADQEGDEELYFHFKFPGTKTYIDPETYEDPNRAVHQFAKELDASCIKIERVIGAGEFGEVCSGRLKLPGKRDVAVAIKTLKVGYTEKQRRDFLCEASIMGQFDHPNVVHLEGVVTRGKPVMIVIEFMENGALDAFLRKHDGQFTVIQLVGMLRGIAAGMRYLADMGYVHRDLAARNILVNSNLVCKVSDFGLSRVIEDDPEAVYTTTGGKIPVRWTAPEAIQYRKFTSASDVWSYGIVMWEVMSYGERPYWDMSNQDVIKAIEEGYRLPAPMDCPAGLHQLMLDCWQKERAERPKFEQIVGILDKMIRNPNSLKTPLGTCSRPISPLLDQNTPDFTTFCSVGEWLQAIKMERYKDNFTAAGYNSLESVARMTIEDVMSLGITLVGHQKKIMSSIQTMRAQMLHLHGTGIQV
Sequence of 266 human kinases (Homo sapiens, UniProt P42685) (P42685 whole entry): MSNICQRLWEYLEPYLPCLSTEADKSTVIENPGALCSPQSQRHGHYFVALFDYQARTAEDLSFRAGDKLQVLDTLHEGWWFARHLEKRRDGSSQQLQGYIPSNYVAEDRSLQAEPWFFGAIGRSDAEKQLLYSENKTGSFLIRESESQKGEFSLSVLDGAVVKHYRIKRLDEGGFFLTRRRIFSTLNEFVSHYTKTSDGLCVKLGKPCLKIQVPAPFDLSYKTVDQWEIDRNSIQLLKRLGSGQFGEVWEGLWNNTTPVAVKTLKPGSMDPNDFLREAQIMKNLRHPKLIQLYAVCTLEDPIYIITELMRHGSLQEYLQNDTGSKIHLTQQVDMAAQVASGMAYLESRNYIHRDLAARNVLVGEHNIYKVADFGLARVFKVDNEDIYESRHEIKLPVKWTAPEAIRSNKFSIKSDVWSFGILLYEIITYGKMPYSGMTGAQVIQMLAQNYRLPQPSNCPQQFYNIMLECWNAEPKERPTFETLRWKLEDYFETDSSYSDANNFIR
Sequence of 266 human kinases (Homo sapiens, UniProt Q15759) (Q15759 whole entry): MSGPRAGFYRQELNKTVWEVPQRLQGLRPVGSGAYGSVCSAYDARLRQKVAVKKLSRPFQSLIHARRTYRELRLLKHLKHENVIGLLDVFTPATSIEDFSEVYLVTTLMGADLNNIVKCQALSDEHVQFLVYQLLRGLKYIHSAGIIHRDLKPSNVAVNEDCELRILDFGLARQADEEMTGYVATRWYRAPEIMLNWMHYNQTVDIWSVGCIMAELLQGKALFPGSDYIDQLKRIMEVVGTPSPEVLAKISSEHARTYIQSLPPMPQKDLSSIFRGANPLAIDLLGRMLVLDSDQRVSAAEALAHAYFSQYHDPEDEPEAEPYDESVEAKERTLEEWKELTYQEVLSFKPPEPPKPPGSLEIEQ
Sequence of 266 human kinases (Homo sapiens, UniProt Q13177) (Q13177 whole entry): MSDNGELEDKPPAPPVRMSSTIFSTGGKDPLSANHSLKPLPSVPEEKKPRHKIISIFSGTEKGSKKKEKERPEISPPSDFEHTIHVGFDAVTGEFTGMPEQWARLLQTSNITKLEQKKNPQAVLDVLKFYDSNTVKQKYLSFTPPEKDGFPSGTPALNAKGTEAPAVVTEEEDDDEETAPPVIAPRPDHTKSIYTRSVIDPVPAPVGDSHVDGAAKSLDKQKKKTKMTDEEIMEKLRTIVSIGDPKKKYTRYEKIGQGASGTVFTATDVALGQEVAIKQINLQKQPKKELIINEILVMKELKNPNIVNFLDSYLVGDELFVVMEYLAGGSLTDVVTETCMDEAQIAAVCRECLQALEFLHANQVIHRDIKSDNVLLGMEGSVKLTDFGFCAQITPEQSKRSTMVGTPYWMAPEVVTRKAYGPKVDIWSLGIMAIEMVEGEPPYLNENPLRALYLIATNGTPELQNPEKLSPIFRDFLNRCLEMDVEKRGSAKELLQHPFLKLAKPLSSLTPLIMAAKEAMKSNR

HRRIKAWLKKIKALARQLGVAA (mammal) [MMI-0500]
% activity (266 human kinases [1]): 20%
% activity (266 human kinases [2]): 2%
% activity (266 human kinases [3]; Hck(h) activated): 67%
% activity (266 human kinases [3]; Hck(h)): 78%
% activity (266 human kinases [4]): 30%
% activity (266 human kinases [5]): 118%
% activity (266 human kinases [6]): 27%
% activity (266 human kinases [7]): 17%
% activity (266 human kinases [8]): 33%
% activity (266 human kinases [9]): 96%
% activity (266 human kinases [10]): 80%
% activity (266 human kinases [11]): 35%
% activity (266 human kinases [12]): 44%
% activity (266 human kinases [13]): 189%
% activity (266 human kinases [14]): 42%
% activity (266 human kinases [15]): 177%

YARAAARQARAKALNRQLGVA (mammal) [MMI-0200]
% activity (266 human kinases [1]): 93%
% activity (266 human kinases [2]): 85%
% activity (266 human kinases [3]; Hck(h) activated): 100%
% activity (266 human kinases [4]): 118%
% activity (266 human kinases [5]): 110%
% activity (266 human kinases [6]): 96%
% activity (266 human kinases [7]): 99%
% activity (266 human kinases [8]): 77%
% activity (266 human kinases [9]): 108%
% activity (266 human kinases [10]): 100%
% activity (266 human kinases [11]): 108%
% activity (266 human kinases [12]): 69%
% activity (266 human kinases [13]): 220%
% activity (266 human kinases [14]): 95%
% activity (266 human kinases [15]): 164%
